The source of these data is PMC6842113.

For this assay, the target named is PSD-95 PDZ1 mutant (ED6N) (UniProt P78352). Description: ITC.
PSD-95 PDZ1 mutant (ED6N), sequence (P78352 60-151, change not shown): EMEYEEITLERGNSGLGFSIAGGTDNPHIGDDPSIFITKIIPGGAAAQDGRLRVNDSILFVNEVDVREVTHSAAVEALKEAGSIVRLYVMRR

B1: Stg_CT WT (domain or fragment)
chain: DRHKQLRATARATDYLQASAITRIPSYRYRYQRRSRSSSRSTEPSHSRDASPVGVKGFNTLPSTEISMYTLSRDPLKAATTPTATYNSDRDNSFLQVHNCIQKDSKDSLHANTANRRTTPV
B1: the fold weakening of binding against PDZ1 WT worked out at 8 fold.
